Reference: patent US20140161804A1 (AbbVie / Abbott, published 2014)

Tests used:
Human TNF [1] = molecular target: T1, Human TNF (human, UniProt P01375 77-233); test: in vitro display selection on recombinant human TNF
T1 construct: Biotinylated in the ELISA; purified recombinant protein in SPR; also called h TNF; huTNF

Human IL-17A [2] = molecular target: T2, Human IL-17A (human, UniProt Q16552 20-155, limits assumed); test: ELISA, captured DVD-Ig, biotin-human IL-17 titrated
T2 construct: Biotinylated in the ELISAs; purified recombinant protein in SPR; also called hIL17A; hIL-17
Method in brief: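 Plate coated with goat anti-mouse IgG-Fc, then antibody captured at 1 μg/ml; serially diluted biotinylated human TNF or IL-17 added 1 h at RT. Bound ligand detected with streptavidin-HRP and TMB, absorbance at 450 nm.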

Human TNF [3] = molecular target: T1, Human TNF; test: cell-based or functional assay
Human TNF [4] = molecular target: T1, Human TNF; test: ELISA, captured DVD-Ig, biotin-human TNF titrated
Experimental: The following protocol is used to characterize the binding of TNF/IL-17 DVD-Ig proteins to human TNF and IL-17 by enzyme-linked immunosorbent assay (ELISA). An ELISA plate was coated with 50 μl per well of goat anti mouse IgG-Fc at 2 μg/ml, overnight at 4° C. The plate was washed 3 times with PBS/Tween. 50 μl Mab diluted to 1 μg/ml in PBS/0.1% BSA was added to appropriate wells and incubated for 1 hour at room temperature (RT). The plate was washed 3 times with PBS/Tween. 50 μl of serial diluted biotin-human TNF or IL-17 was added to appropriate wells and incubated for 1 hour at RT. The plate was washed 3 times with PBS/Tween. 50 μl of streptavidin-HRP diluted 1:10,000 in PBS/0.1% BSA was added to appropriate wells and incubated for 1 hour at RT. The plate was washed 3 times with PBS/Tween. 50 μl of TMB was added to appropriate wells and the reaction allowed to proceed for 1 minute. The reaction was stopped with 50 μl/well 2N H₂SO₄ and the absorbance read at 450 nm.

Cynomolgus monkey IL-17A = molecular target: T3, Cynomolgus monkey IL-17A (cynomolgus monkey, UniProt A0A2K5TTB0 24-155); test: SPR (Biacore T200), DVD-Ig captured by anti-human IgG Fc, antigen in solution
T3 construct: also called Cyno IL-17AA; Cyno IL17AA
Experimental: (§1) The binding of antibodies to purified recombinant IL-17 and TNFα proteins were determined by surface plasmon resonance-based measurements with a Biacore® T200 instrument (GE Healthcare) using running HBS-EP (10 mM HEPES [pH 7.4], 150 mM NaCl, 3 mM EDTA, and 0.005% surfactant P20) containing 0.1 mg/ml BSA at 25° C. All chemicals were obtained from Biacore® AB (GE Healthcare) or otherwise from a different source as described in the text. Approximately 5000 RU of goat anti-human IgG (Fcγ) fragment specific polyclonal antibody (Pierce Biotechnology Inc, Rockford, Ill.) diluted in 10 mM sodium acetate (pH 4.5) was directly immobilized across a CM5 research grade biosensor chip using a standard amine coupling kit according to manufacturer's instructions and procedures at 25 ug/ml. Unreacted moieties on the biosensor surface were blocked with ethanolamine. Modified carboxymethyl dextran surface in flowcell 2, 3 and 4 were used as a reaction surface. Modified carboxymethyl dextran with goat IgG in flow cell 1 was used as the reference surface. For kinetic analysis, rate equations derived from the 1:1 Langmuir binding model were fitted simultaneously to association and dissociation phases of all six injections (using global fit analysis with local float for Rmax) with the use of Biacore T200 Evaluation software v.1.0. Purified antibodies were diluted in HEPES-buffered saline for capture across goat anti-human IgG specific reaction surfaces. Antibodies to be captured as ligand (1-5 μg/ml) were injected over reaction matrices at a flow rate of 50 μl/minute. Association phase was monitored for 5 minutes, while dissociation phase was monitored for 10-60 minutes to accommodate for slower off-rates. The association and dissociation rate constants, ka (unit M-1 s-1) and kd (unit s-1) were determined under a continuous flow rate of 50 μl/minute. Rate constants were derived by making kinetic binding measurements at six different antigen concentrations ranging from 0.78 nM to 100 nM, depending on the species of IL-17 or TNFα tested. The association ka, dissociation rate kd and equilibrium dissociation constant KD were calculated with the use of the same Biacore T200 Evaluation software v.1.0.

Rhesus TNFa = molecular target: T4, Rhesus TNFa (rhesus, UniProt P48094 77-233); test: as above
T4 construct: also called Rhesus TNF-alpha
Experimental: as §1

Human IL-17A [5] = molecular target: T2, Human IL-17A; test: as above
Experimental: as §1

Human TNF [6] = molecular target: T1, Human TNF; test: as above
Experimental: as §1

T4 sequence (P48094 77-233 limits assumed): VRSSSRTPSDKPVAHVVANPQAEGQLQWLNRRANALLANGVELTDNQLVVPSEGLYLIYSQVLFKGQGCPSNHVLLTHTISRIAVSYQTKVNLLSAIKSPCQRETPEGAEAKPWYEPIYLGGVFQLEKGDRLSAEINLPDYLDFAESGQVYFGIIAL
T1 sequence (P01375 77-233 limits assumed): as the sequence (P48094 77-233 limits assumed) above, with T44R, N72T, L138R counted along it
T3 sequence (A0A2K5TTB0 entry or part of it): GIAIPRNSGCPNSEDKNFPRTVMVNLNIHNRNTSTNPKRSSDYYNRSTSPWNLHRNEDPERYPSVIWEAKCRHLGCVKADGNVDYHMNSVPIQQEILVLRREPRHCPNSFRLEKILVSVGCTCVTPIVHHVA
T2 sequence (Q16552 20-155 limits assumed): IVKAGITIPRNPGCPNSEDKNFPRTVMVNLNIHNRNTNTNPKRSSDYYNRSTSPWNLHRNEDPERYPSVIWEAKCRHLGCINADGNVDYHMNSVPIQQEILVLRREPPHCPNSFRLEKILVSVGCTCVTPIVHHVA

B1: AE11-1 (antibody, V domains shown)
VH: EVQLVQSGAEVKKPGASVKVSCKASGYTFTSYDVNWVRQATGQGLEWMGWMNPNSGNTGYAQKFQGRVTITADESTSTAYMELSSLRSEDTAVYYCAIFDSDYMDVWGKGTLVTVSS
VL: SYELTQPPSVSLSPGQTARITCSGDALPKQYAYWYQQKPGQAPVLVIYKDTERPSGIPERFSGSSSGTTVTLTISGAQAEDEADYYCQSADSSGTSWVFGGGTKLTVL
notes: Fully human anti-TNF antibody isolated by in vitro display; also called AE11-1 VH; AE11-1 VL
B1: binds (Human TNF [1]).

B2: hMAK199-1-h10F7-M10.8 DVD-Ig (bispecific antibody, human IgG1, kappa, L234A L235A)
heavy: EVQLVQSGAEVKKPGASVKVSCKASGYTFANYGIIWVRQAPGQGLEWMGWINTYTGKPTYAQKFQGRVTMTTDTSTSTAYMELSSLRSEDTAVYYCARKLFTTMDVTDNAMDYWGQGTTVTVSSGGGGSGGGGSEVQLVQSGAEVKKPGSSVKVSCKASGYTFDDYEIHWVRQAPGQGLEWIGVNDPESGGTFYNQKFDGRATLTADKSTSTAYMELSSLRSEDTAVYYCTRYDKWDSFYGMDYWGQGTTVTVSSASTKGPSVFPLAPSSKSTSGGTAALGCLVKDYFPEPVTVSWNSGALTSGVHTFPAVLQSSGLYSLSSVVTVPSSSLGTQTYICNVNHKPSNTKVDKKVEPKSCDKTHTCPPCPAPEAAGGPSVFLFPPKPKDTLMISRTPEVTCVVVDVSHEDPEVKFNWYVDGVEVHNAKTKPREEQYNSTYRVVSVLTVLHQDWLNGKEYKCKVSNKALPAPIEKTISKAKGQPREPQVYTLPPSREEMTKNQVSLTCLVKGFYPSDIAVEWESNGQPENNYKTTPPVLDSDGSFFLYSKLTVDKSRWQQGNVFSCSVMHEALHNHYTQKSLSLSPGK
light: DIQMTQSPSSLSASVGDRVTITCRASQDISQYLNWYQQKPGKAPKLLIYYTSRLQSGVPSRFSGSGSGTDFTLTISSLQPEDFATYFCQQGNTWPPTFGQGTKLEIKRGGSGGGGSGDIQMTQSPSSLSASVGDRVTITCSASSGSISYIDWFQQKPGKAPKRLIYATFELASGVPSRFSGSGSGTDFTLTISSLQPEDFATYYCHQLGSYPDTFGQGTKLEIKRTVAAPSVFIFPPSDEQLKSGTASVVCLLNNFYPREAKVQWKVDNALQSGNSQESVTEQDSKDSTYSLSSTLTLSKADYEKHKVYACEVTHQGLSSPVTKSFNRGEC
notes: DVD-Ig; IgG1 234,235 mut, kappa; GS10 linkers; also called HMAK199-1-GS10-H10F7-M10 DVD
For B2, the EC50 (Human IL-17A [2]) was 0.081 nM, the “Potency IC50 (nM), L929 bioassay, human TNF” value (Human TNF [3]) was 0.037 nM and the EC50 (Human TNF [4]) was 0.22 nM.

B3: hMAK199-1-h10F7-M11.8 DVD-Ig wt (bispecific antibody, human IgG1, kappa)
heavy: not shown
light: DIQMTQSPSSLSASVGDRVTITCRASQDISQYLNWYQQKPGKAPKLLIYYTSRLQSGVPSRFSGSGSGTDFTLTISSLQPEDFATYFCQQGNTWPPTFGQGTKLEIKRGGSGGGGSGDIQMTQSPSSLSASVGDRVTITCRASSGIISYIDWFQQKPGKAPKRLIYATFDLASGVPSRFSGSGSGTDYTLTISSLQPEDFATYYCRQVGSYPETFGQGTKLEIKRTVAAPSVFIFPPSDEQLKSGTASVVCLLNNFYPREAKVQWKVDNALQSGNSQESVTEQDSKDSTYSLSSTLTLSKADYEKHKVYACEVTHQGLSSPVTKSFNRGEC
notes: DVD-Ig; wild-type IgG1, kappa; GS10 linkers; Uncertain; also called HMAK199-1-h10F7-M11.8 HC DVD wt
B3 gave an EC50 (Human IL-17A [2]) of 0.088 nM, a Kd (Cynomolgus monkey IL-17A) of 0.00444 nM and a koff (Cynomolgus monkey IL-17A) of 1.18e-06 s⁻¹. For the same binder, the kon (Cynomolgus monkey IL-17A) was 267000 M⁻¹ s⁻¹, the Kd (Rhesus TNFa) was 0.0137 nM and the koff (Rhesus TNFa) was 3.03e-05 s⁻¹. It also gave a kon (Rhesus TNFa) of 2.2e+06 M⁻¹ s⁻¹, a Kd (Human IL-17A [5]) of 0.0257 nM and a koff (Human IL-17A [5]) of 7.9e-06 s⁻¹. The kon (Human IL-17A [5]) was 307000 M⁻¹ s⁻¹, the Kd (Human TNF [6]) was 0.00561 nM and the koff (Human TNF [6]) was 2.4e-05 s⁻¹. The kon (Human TNF [6]) was 4.28e+06 M⁻¹ s⁻¹, the “Potency IC50 (nM), L929 bioassay, human TNF” value (Human TNF [3]) was 0.033 nM and the EC50 (Human TNF [4]) was 0.095 nM.
